Assay [1] addresses recombinant human TfR1 (transferrin receptor 1) (human) (UniProt P02786). As to the kind of experiment: ELISA on coated human TfR1, purified VNAR-Fc.
Assay [2] deals with recombinant mouse TfR1 (transferrin receptor 1) (mouse) (UniProt Q62351). Kind of assay: ELISA on coated mouse TfR1, purified VNAR-Fc. A general note: ELISA stands for enzyme-linked immunosorbent assay.
For assay [3] the target is unchanged. As to the kind of experiment: Octet, mouse TfR1 on anti-His biosensors, analyte 10 nM, PBS pH 6.0. On the technique in general: In BLI a coated tip is dipped into the sample, and binding shifts an interference pattern.
Assay [4] shares this target. As to the kind of experiment: Octet, mouse TfR1 on anti-His biosensors, analyte 10 nM, PBS pH 7.2.
The target of assay [5] is recombinant human TfR1 (transferrin receptor 1) (human) (UniProt P02786). Kind of assay: SPR (Biacore), single-cycle kinetics, His-tagged TfR1 captured, VNAR-Fc injected.
Chain of recombinant human TfR1 (transferrin receptor 1) (human) (P02786 89-760 limits assumed): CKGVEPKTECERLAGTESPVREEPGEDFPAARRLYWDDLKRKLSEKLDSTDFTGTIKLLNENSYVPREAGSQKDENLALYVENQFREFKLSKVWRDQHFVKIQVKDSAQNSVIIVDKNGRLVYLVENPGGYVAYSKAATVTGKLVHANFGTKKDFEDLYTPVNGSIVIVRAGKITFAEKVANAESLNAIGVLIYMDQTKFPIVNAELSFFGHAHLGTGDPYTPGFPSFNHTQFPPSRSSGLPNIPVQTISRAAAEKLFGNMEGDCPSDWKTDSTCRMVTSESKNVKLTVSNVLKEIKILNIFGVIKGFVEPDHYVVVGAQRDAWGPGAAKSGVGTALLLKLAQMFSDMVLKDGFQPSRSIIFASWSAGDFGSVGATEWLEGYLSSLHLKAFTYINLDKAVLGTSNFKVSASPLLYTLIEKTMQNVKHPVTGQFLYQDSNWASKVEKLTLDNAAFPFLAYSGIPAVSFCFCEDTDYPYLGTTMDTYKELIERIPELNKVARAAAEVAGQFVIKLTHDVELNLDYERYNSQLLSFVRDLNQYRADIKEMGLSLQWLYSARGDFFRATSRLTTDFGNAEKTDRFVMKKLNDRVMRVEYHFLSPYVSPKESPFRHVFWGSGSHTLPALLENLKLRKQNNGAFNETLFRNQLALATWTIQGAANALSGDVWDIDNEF
For assay [6], the target named is recombinant mouse TfR1 (transferrin receptor 1) (mouse) (UniProt Q62351). The description is as above.
In assay [7] the target is recombinant human TfR1 (transferrin receptor 1) (human) (UniProt P02786). Kind of assay: ELISA, plate coated with 1 µg/ml recombinant human TfR1, purified VNAR-Fc titrated, 4-parameter fit.
Assay [8] addresses recombinant mouse TfR1 (transferrin receptor 1) (mouse) (UniProt Q62351). As to the kind of experiment: ELISA, plate coated with 1 µg/ml recombinant mouse TfR1, purified VNAR-Fc titrated, 4-parameter fit.
Assay [9] has the same target. Kind of assay: Octet, mouse TfR1 immobilised on biosensors; row buffer (no first antibody), column cont. (taken as the control VNAR F02).
For assay [10], the target named is recombinant human TfR1 (transferrin receptor 1) (human) (UniProt P02786). Kind of assay: Octet, human TfR1 immobilised on biosensors; row buffer (no first antibody), column cont. (taken as the control VNAR F02).
For assay [11] the target is unchanged. Kind of assay: Octet, human TfR1 immobilised; 8D3 as first antibody, which does not bind human TfR1 (grey column); white cell; cont. taken as the control VNAR F02.

Chain of recombinant mouse TfR1 (transferrin receptor 1) (mouse) (Q62351 89-763 limits assumed): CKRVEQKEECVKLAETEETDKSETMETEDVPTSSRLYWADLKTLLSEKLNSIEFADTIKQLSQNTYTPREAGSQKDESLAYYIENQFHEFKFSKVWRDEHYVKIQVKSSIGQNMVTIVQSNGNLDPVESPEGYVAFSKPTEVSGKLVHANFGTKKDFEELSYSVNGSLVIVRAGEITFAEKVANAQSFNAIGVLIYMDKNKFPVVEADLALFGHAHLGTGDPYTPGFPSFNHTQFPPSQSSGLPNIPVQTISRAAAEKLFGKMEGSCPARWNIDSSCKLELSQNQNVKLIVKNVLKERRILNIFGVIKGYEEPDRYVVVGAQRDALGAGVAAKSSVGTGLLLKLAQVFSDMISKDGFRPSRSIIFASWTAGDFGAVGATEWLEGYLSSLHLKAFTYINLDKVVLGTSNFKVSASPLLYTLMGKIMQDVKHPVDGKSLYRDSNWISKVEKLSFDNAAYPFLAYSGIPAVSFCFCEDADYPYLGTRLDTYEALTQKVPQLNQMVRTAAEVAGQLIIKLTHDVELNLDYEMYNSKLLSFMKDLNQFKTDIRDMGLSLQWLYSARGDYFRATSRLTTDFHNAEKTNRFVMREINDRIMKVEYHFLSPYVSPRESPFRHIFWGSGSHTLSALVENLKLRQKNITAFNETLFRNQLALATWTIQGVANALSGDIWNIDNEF

On to F02 control VNAR-Fc (Fc fusion), for which the concentration for a half-maximal effect (EC50) was 1 nM in assay [1], 10 nM in [2], 3.69 nM in [7] and 38.2 nM in assay [8]. For the same substance, the Kd was found to be 0.344 nM in assay [3], 0.294 nM in assay [4], 0.969 nM in [5] and 1.46 nM in [6]. For the same substance, the koff was found to be 0.000147 s⁻¹ in assay [3], 9.86e-05 s⁻¹ in [4], 0.00011 s⁻¹ in [5] and 0.00016 s⁻¹ in assay [6]. Also, the kon came out at 426000 M⁻¹ s⁻¹ in [3], 335000 M⁻¹ s⁻¹ in [4], 113000 M⁻¹ s⁻¹ in [5] and 109000 M⁻¹ s⁻¹ in [6]. Besides, the Octet signal as second antibody after buffer amounted to 0.194 in [9] and 0.386 in [10]. Moreover, the Octet signal as second antibody after 8D3 in [11] was found to be 0.381.

As usually defined, the EC50 is the concentration at which the effect is half-maximal. Broadly, the Kd is the concentration at which binding is half-saturated. Usually koff stands for the rate constant with which the complex falls apart. One may read the kon as the second-order rate constant of association.

These data come from patent publication US20220031857A1.
